Experimental data from US20260185118A1 (priority 2023, published 2026).
Numbering of substitutions follows the chain as printed.

B1: CsPUB21DN (protein)
chain: MILSWKRLRGGRGRRAGKKQPGVESGGEMELTTPNHFRAPISLDLMKDPVTLSTGITYDRENIEKWIHEDGNITCPVTNRVLTSFEPIPNHTIRRMIQDWCVENRSYGIERIPTPRIPVSSVEVFEINCNITTACKSEDQAGCRDLVAKIKKWTKESDRNKRCIVDNGAVSVLAEAFETFSKTCLDENVSVLEEILSTLTLLFPLAGEGLTYLGSASSMRCMVWFLKSGDLSRRRNAVLVLREIVSSDHRKVNVLLDIEGAIEPLFKLIKEPICPTATKASLVVVYRTITSASATEKPIQKFVDMGLVSLLLEMLVDAQRSLCEKALSVLDGLCSSDYGRGDAYNNSLIFPVIVKKILRVSDLATEFAVSILWKLCKNEEREEKTAFAEALQVGAFQKLLLLLQVGCADKTKEHVSELLKLLNPHRARLECIDSMDFKDLKRPF
modifications: left off: large carriers
B2: CsPUB21: citrus plant U-box E3 ubiquitin ligase protein, amino acid sequence SEQ ID No. 1; overexpressed in citrus (protein)
chain: B1 chain with A39C

Key:
CsMYC2 [1] = type: biochemical, Citrus sinensis; settings: with AtUBA1, AtUBC8 and ubiquitin, anti-MBP immunoblot
CsMYC2 protein = type: cell-based, Citrus sinensis; settings: tobacco leaves, 35S:CsMYC2-myc co-injected, versus 35S:YFP
[2] = system: Diaphorina citri Kuwayama; type: in vivo; settings: overexpressing leaves versus blank vector control leaves, 100 psyllids starved 2 h, counted after 40 min
CsMYC2 [3] = type: binding, Citrus sinensis; settings: yeast AH109, SD-Leu-Trp-His with 5 mM 3-AT
CsMYC2 [4] = type: cell-based, Citrus sinensis; settings: tobacco leaves, 2-3 days, cytoplasm and nucleus
CsPUB21 = type: biochemical, Citrus sinensis; settings: in the presence of E1 (AtUBA1) and E2 (AtUBC8), anti-c-myc immunoblot

| Molecule | polyubiquitination of the CsMYC2 protein in vitro (CsMYC2 [1]) | accumulated level of the CsMYC2 protein on coexpression (CsMYC2 protein) | Diaphorina citri Kuwayama attracted by leaves of transgenic citrus [2] | interaction with CsMYC2 (yeast two-hybrid) (CsMYC2 [3]) | interaction with CsMYC2 (BiFC) (CsMYC2 [4]) | E3 ubiquitin ligase activity (auto-ubiquitination) (CsPUB21) |
| --- | --- | --- | --- | --- | --- | --- |
| B1 | cannot ubiquitinate CsMYC2 | this reduction was inhibited | about 40% | does not affect the interaction with CsMYC2 | does not affect the interaction with CsMYC2 | does not show ubiquitination activity |
| B2 |  |  | 63.5% |  |  |  |
